Measurements from patent publication US20230089620A1 (JIANGSU HENGRUI PHARMACEUTICALS, published 2023).

Assays:
[1] = target: T1, biotin-labeled IL-2 with a human Fc-tag (Sanyou Biopharmaceutical, GenBank Accession No: P60568-1) (UniProt P60568 21-153, biotin-labeled (site not stated)); assay: ELISA, antibody titrated and captured by anti-human IgG, biotin-IL-2-Fc 2 µg/mL
T1 construct: Bought reagent; also called biotinylated IL-2-Fc; not shown: human Fc-tag
Description: Anti-human IgG (STAR161, Bio-rad) was diluted to 2 μg/mL with PBS and added at 30 μL/well to coat an ELISA plate, and the plate was incubated overnight at 4° C. The plate was washed with PBST 3 times. The plate was blocked with 1% BSA for 1 h at room temperature and washed with PBST 3 times. […] 30 μL of the antibody solution was added to an ELISA plate, and the plate was incubated at room temperature for 1 h and washed with PBST 3 times. […] The plate was incubated at room temperature for 1 h and washed with PBST 3 times. 30 μL of secondary antibody NeutrAvidin-HRP diluted in a 1:6000 ratio was added. The plate was incubated at room temperature for 1 h and washed with PBST 9 times. 30 μL of TMB was added for color developing for 5-10 min at room temperature, then 30 μL of 2M HCl or H₂SO₄ was added to terminate the reaction. The plate was read for data by a microplate reader at OD 450.

[2] = target: IL-2 (C013, Novoprotein) (UniProt P60568 21-153); assay: SPR (Biacore T200), antibody captured on Protein A chip, IL-2 analyte, 1:1 model
Description: The solutions flowed at a flow rate of 30 μL/min for dissociation for 300 s. The reaction signals were detected in real time to obtain association and dissociation curves. After the dissociation was completed for each assay cycle, the chip was washed and regenerated with 10 mM Gly-HCl, pH 2.0.

[3] = target: T1, biotin-labeled IL-2 with a human Fc-tag …; assay: competition ELISA: antibody titrated, pre-incubated with biotin-IL-2-Fc (1 µg/mL); competitor coated IL-2Rα-Fc
Description: (§1) IL-2Rα-Fc (CJ78, Novoprotein) (Accession #NP_000408) was diluted to 0.5 μg/mL with PBS and added at 30 μL/well to coat an ELISA plate, and the plate was incubated overnight at 4° C. The plate was washed with PBST 3 times. The plate was blocked with 1% BSA for 1 h at room temperature and washed with PBST 3 times. […] The plate was incubated at room temperature for 1 h, and washed with PBST 3 times. 30 μL of secondary antibody NeutrAvidin-HRP diluted in a 1:6000 ratio was added, and the plate was incubated at room temperature for 1 h and washed with PBST 9 times. 30 μL of TMB was added for color developing for 5-10 min at room temperature, then 30 μL of 2 M HCl or H₂SO₄ was added to terminate the reaction. The plate was read for data by a microplate reader at OD 450.

[4] = target: T1, biotin-labeled IL-2 with a human Fc-tag …; assay: competition ELISA: antibody titrated, pre-incubated with biotin-IL-2-Fc (5 µg/mL); competitor coated IL-2Rβ-Fc
Description: as §1, with “IL-2Rβ-Fc (CJ82,” for “IL-2Rα-Fc (CJ78,”, “Novoprotein)” for “Novoprotein) (Accession #NP_000408)”, “8” for “0.5”

[5] = target: T2, IL-2-His (CX66, Novoprotein) (UniProt P60568 21-153); assay: Octet: reading at 230 s of IL-2-His (100 nM) + antibody (500 nM) on biotin-IL-2Rα-Fc sensor; lower = stronger blocking
T2 construct: Bought reagent; not shown: His tag
Description: A Streptavidin biosensor (Fortebio, #18-5020) was immersed in 200 μL of KB buffer (PBS, pH 7.4, 0.05% tween-20, 0.1% BSA) for 60 s for the wetting treatment. Then, biotinylated IL-2Rα-Fc (CJ78, Novoprotein) was diluted to 10 μg/mL with the KB buffer, and the sensor was immersed in 200 μL of the solution for 150 s. The sensor was immersed in the KB buffer for 60 s to elute excess IL-2Rα. […] The sensor was immersed in the mixture for 300 s for association. […] The values at 230 s after the beginning of the binding were read.

[6] = target: T1, biotin-labeled IL-2 with a human Fc-tag …; assay: Octet: biotin-IL-2-Fc sensor loaded with antibody (500 nM), reading at 230 s of IL-2Rβ-Fc (8000 nM) binding; lower = stronger blocking
Description: A Streptavidin biosensor (Fortebio, #18-5020) was immersed in 200 μL of KB buffer (PBS, pH 7.4, 0.05% tween-20, 0.1% BSA) for 60 s for the wetting treatment. […] The IL-2Rβ-Fc (CJ82, Novoprotein) was diluted to a final concentration of 8000 nM with the KB buffer, and the sensor was immersed in the antibody solution for association for 300 s. […] The values at 230 s after the beginning of the binding of IL-2Rβ-Fc were read.

T1 sequence (P60568 21-153 limits assumed, one chain of several): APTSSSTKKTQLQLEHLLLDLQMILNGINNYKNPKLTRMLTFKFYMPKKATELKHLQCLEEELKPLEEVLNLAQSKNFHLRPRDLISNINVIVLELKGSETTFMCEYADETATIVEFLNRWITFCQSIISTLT
T2 sequence (P60568 21-153 limits assumed): as the sequence (P60568 21-153 limits assumed, one chain of several) above
IL-2 (C013, Novoprotein), sequence (P60568 21-153 limits assumed): as the sequence (P60568 21-153 limits assumed, one chain of several) above

Row | EC50 [1] [µg/mL] | Kd [2] [nM] | koff [2] [s⁻¹] | kon [2] [M⁻¹ s⁻¹] | IC50 [3] [µg/mL] | IC50 [4] [µg/mL] | Values for blocking IL-2Rα at an Octet level [5] | Values for blocking IL-2Rβ at an Octet level [6] | Binder
1 | 1.21 | 4.72 | 0.0546 | 1.16e+07 | 1.2 | 2.13 | 0.473 | 0.027 | D3-68 full-length fully human anti-IL-2 antibody (antibody, human IgG1, kappa, L234A L235A, V domains shown, Human IgG1 with LALA mutation, kappa light chain) VH: QVQLVQSGPEVKKPGASVKVSCKASGYTFTSYGISWVRRAPGQGLEWMGWISAYNGNTNYAQKLQGRVTMTTDTSTSTAYMELRSLRSDDTAVYYCARDLQSPTYYYGSGVIDYWGQGTLVTVSS VL: DIQLTQSPSTLSASVGDRVTISCRASRAVSPWLAWYQHRPGQAPKLLIYAASSLQSGVPSRFSGSGSGTDFTLTISSLQPEDFATYYCQQYRSYPFTFGPGTTVDIRR
2 | 0.73 | 0.267 | 0.00437 | 1.64e+07 | 0.659 | 1.44 | 0.41 | 0.017 | C2-53 full-length fully human anti-IL-2 antibody (antibody, human IgG1, kappa, L234A L235A, V domains shown, Human IgG1 with LALA mutation, kappa light chain) VH: EVQLVESGGGLVQPGRSLILSCAASGFTFDDYAMHWVRQAPGKGLEWVSGISWNSGSIGYADSVKGRFTISRDNAKNSLYLQMNSLRAEDTALYYCAKDQLRWGTYYYYGMDVWGQGTTVTVSS VL: DIQMTQSPSTLSASVGDRVTITCRASQSVSIWVAWYQQKPGKAPKLLIYKASSLERGVPTRFSGSGSGTEFTLTISSLQPEDFATYHCQQYDTGATFGQGTKVEMKR
3 | 1.29 | 39.8 | 0.0527 | 1.33e+06 | – | 2.73 | 0.848 | 0.042 | A2-22 full-length fully human anti-IL-2 antibody (antibody, human IgG1, kappa, L234A L235A, V domains shown, Human IgG1 with L234A/L235A (LALA), kappa light chain; expressed in HEK293) VH: QVQLVQSGAEVKKPGASVKVSCKASGYTFTSYYMHWVRQAPGQGLEWMGIINPSGGSTSYAQKFQGRVTMTRDTSTSTVYMELSSLRSEDTAVYYCAREDWMEYEYYYGMDVWGQGTLVTVSS VL: EIVLTQSPGTLSLSPGERATLSCRASQSVSNNYLAWYQQKPGQAPRLLIYGASSRATGIPDRFSGSGSGTDFTLTISRLEPEDFAVYSCQQYGSSPLTFGQGTRLEIKR
4 | 1.43 | 12.8 | 0.00651 | 509000 | – | 8.27 | 0.754 | 0.086 | D2-60 full-length fully human anti-IL-2 antibody (antibody, human IgG1, kappa, L234A L235A, V domains shown, Human IgG1 with LALA mutation, kappa light chain) VH: QVQLVQSGAEVKKPGASVKVSCKASGYTFTSYGISWVRQAPGQGLEWMGWISAYNGNTNYAQKLQGRVTMTTDTSTSTAYMELRSLRSDDTAVYYCAREYSSWYSGGMDVWGQGTTVTVSS VL: DIQMTQSPSSLSASVGDRVTITCRASQGISNYLAWYQQKPGKVPKLLIYAASTLQSGVPSRFSGSGSGTDFTLTISSLQPEDVATYYCQKYDSAPFTFGQGTRLEIKR
5 | 2.12 | 30.6 | 0.0448 | 1.46e+06 | – | 3.04 | 0.7 | 0.056 | B2-15 full-length fully human anti-IL-2 antibody (antibody, human IgG1, kappa, L234A L235A, V domains shown, Human IgG1 with LALA mutation, kappa light chain) VH: EVQLLESGAEVKKPGASVKVSCKASGYTFTSYYMHWVRQAPGQGLEWMGIINPSGGSTSYAQKFQGRVTMTRDTSTSTVYMELSSLRSEDTAVYYCAREGNSSGYYNAFDIWGQGTMVTVSS VL: not shown
6 | 1.35 | – | – | – | 1.46 | 3.48 | 0.428 | 0.003 | A3-21 full-length fully human anti-IL-2 antibody (antibody, human IgG1, lambda, L234A L235A, V domains shown, Human IgG1 with LALA mutation) VH: EVQLLESGGGLAQPGGSLRLSCAGSGFTFSSYAMSWVRQAPGKGLEWVSGITGTGYRTYYADSVKGRFTVSRDNSRNTVYLQMNSLRAEDTAVYYCVRESGHYYGWFDSWGQGTLVTVSS VL: QSALTQPPSVSGAPGQRVTISCTGSSSNIGAGYNVHWYQQVPGTVPKLLIDGKGNRPSGVPDRFSGSKSGTSASLAITGLQAEDEADYYCQSYDYMLSGSVVFGRGTKLTVLG
